In patent publication US20150152150A1:

What follows are substances tested against human Y1 receptor (human) (UniProt P25929) (assay: cell-based or functional assay).
Chain of human Y1 receptor (human) (P25929 whole entry): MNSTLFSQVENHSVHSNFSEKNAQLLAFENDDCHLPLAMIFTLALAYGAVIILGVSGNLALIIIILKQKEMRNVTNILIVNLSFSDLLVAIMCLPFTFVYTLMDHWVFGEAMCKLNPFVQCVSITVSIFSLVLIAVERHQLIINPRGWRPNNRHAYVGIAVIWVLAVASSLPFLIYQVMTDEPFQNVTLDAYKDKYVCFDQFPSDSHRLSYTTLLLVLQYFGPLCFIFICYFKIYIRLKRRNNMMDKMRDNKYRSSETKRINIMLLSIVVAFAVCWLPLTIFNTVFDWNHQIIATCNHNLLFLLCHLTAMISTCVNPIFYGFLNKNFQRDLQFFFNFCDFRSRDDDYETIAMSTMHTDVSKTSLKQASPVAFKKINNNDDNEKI

Substance | EC50, Actone functional potency assay [nM]
4-N{alpha}-(3-Methylbutanoyl)-7-N{Epsilon}-[2-[2-[2-[[2-[2-[2-[[2-[2-[2-[[(4S)-4-carboxy-4-(16-sulfohexadecanoylamino)butanoyl]amino]ethoxy]ethoxy]acetyl]-amino]ethoxy]ethoxy]acetyl]amino]ethoxy]ethoxy]acetyl]-[Arg4,Lys7,Gln18,Trp30,NMeArg35]hPYY(4-36) (peptide) | > 1000
4-N{alpha}-(3-Methylbutanoyl)-7-N{Epsilon}-[2-[2-[2-[[2-[2-[2-[[(4S)-4-carboxy-4-(14-sulfotetradecanoylamino)butanoyl]amino]ethoxy]ethoxy]acetyl]]amino]ethoxy]-ethoxy]acetyl]-[Arg4,Lys7,Gln18,Trp30,NMeArg35]hPYY(4-36) (peptide) | > 1000
4-N{alpha}-(3-Methylbutanoyl)-7-N{Epsilon}-[2-[2-[2-[[2-[2-[2-[[(4S)-4-carboxy-4-(16-carboxy-hexadecanoylamino)butanoyl]amino]ethoxy]ethoxy]acetyl]]amino]ethoxy]-ethoxy]acetyl]-[Arg4,Lys7,Gln18,Trp30,NMeArg35]hPYY(4-36) (peptide) | > 1000
4-N{alpha}-(3-Methylbutanoyl)-7-N{Epsilon}-[2-[2-[2-[[2-[2-[2-[[(4S)-4-carboxy-4-(16-sulfohexadecanoylamino)butanoyl]amino]ethoxy]ethoxy]acetyl]amino]-ethoxy]ethoxy]acetyl]-[Lys7,Gln18,Trp30,NMeArg35]hPYY(4-36) (peptide) | > 1000
4-N{alpha}-(3-Methylbutanoyl)-7-N{Epsilon}-[4-[3-[2-[2-[3-[[(4S)-4-carboxy-4-(16-sulfohexadecanoylamino)butanoyl]amino]propoxy]ethoxy]ethoxy]propylamino]-4-oxobutanoyl]-[Arg4,Lys7,Gln18,Trp30,NMeArg35]hPYY(4-36) (peptide) | > 1000
4-N{alpha}-(3-methyl-pentanoyl)-7-N{Epsilon}-[2-[2-[2-[[2-[2-[2-[[(4S)-4-carboxy-4-(16-sulfohexadecanoylamino)butanoyl]amino]ethoxy]ethoxy]acetyl]amino]-ethoxy]ethoxy]acetyl]-[Lys7,Gln18,Trp30,NMeArg35]hPYY(4-36) (peptide) | > 1000
4-N{alpha}-(hexanoyl)-7-N{Epsilon}-[2-[2-[2-[[2-[2-[2-[[(4S)-4-carboxy-4-(16-sulfohexadecanoylamino)butanoyl]amino]ethoxy]ethoxy]acetyl]amino]ethoxy]-ethoxy]acetyl]-[Arg4,Lys7,Gln18,Trp30,NMeArg35]hPYY(4-36) (peptide) | > 1000
7-N{Epsilon}-[2-[2-[2-[[2-[2-[2-[[(4S)-4-carboxy-4-(16-sulfohexadecanoylamino)-butanoyl]amino]ethoxy]ethoxy]acetyl]amino]ethoxy]ethoxy]acetyl]-[Lys7,Gln18, Trp30,NMeArg35]hPYY(3-36) (peptide) | > 1000

Results, then the substance that gave them:

EC50, Actone functional potency assay [nM] | Substance
> 1000 | 4-N{alpha}-(3-Methylbutanoyl)-7-N{Epsilon}-[2-[2-[2-[[2-[2-[2-[[(4S)-4-carboxy-4-(14-carboxy-tetracanoylamino)butanoyl]amino]ethoxy]ethoxy]acetyl]]amino]ethoxy]-ethoxy]acetyl]-[Arg4,Lys7,Gln18,Trp30,NMeArg35]hPYY(4-36) (peptide)
> 1000 | 4-N{alpha}-(3-Methylbutanoyl)-7-N{Epsilon}-[2-[2-[2-[[2-[2-[2-[[(4S)-4-carboxy-4-(15-carboxypentadecanoylamino)butanoyl]amino]ethoxy]ethoxy]acetyl]amino]-ethoxy]ethoxy]acetyl]-[Arg4,Lys7,Gln18,Trp30,NMeArg35]hPYY(4-36) (peptide)
> 1000 | 4-N{alpha}-(3-Methylbutanoyl)-7-N{Epsilon}-[2-[2-[2-[[2-[2-[2-[[(4S)-4-carboxy-4-(16-sulfohexadecanoylamino)-butanoyl]amino]ethoxy]ethoxy]acetyl]amino]ethoxy]-ethoxy]acetyl]-[Arg4,Lys7,Gln18,Trp30,NMeArg35]hPYY(4-36) (peptide)
> 1000 | 4-N{alpha}-(3-Methylbutanoyl)-7-N{Epsilon}-[2-[2-[2-[[2-[2-[2-[[(4S)-4-carboxy-4-(17-carboxyheptadecanoylamino)butanoyl]amino]ethoxy]ethoxy]acetyl]amino]ethoxy]-ethoxy]acetyl]-[Arg4,Lys7,Gln18,Trp30,NMeArg35]hPYY(4-36) (peptide)
> 1000 | 4-N{alpha}-(3-Methylbutanoyl)-7-N{Epsilon}-[4-[3-[2-[2-[3-[[4-[3-[2-[2-[3-[[(4S)-4-carboxy-4-(16-sulfohexadecanoylamino)butanoyl]amino]propoxy]ethoxy]-ethoxy]propylamino]-4-oxobutanoyl]amino]propoxy]ethoxy]ethoxy]propylamino]-4-oxobutanoyl]-[Arg4,Lys7,Gln18,Trp30,NMeArg35]hPYY(4-36) (peptide)
> 1000 | 4-N{alpha}-(3-Methylbutanoyl)-7-N{Epsilon}-[(2S)-2-amino-6-[[2-[2-[2-[[(4S)-4-carboxy-4-(16-sulfohexadecanoylamino)butanoyl]amino]ethoxy]ethoxy]acetyl]-amino]hexanoyl]]-[Arg4,Lys7,Gln18,Trp30,NMeArg35]hPYY(4-36) (peptide)
> 1000 | 7-N{Epsilon}-[2-[2-[2-[[2-[2-[2-[[2-[2-[2-[[2-[2-[2-[4-[16-(1H-tetrazol-5-yl)-hexadecanoylsulfamoyl]butanoylamino]ethoxy]ethoxy]acetyl]amino]ethoxy]-ethoxy]acetyl]amino]ethoxy]ethoxy]acetyl]amino]ethoxy]ethoxy]acetyl]-[Lys7,Gln18,Trp30,NMeArg35]hPYY(3-36) (peptide)
> 1000 | 7-N{Epsilon}-[2-[2-[2-[[2-[2-[2-[[(4S)-4-carboxy-4-(16-sulfohexadecanoylamino)-butanoyl]amino]ethoxy]ethoxy]acetyl]amino]ethoxy]ethoxy]acetyl]-[Arg4,Lys7,Gln18, Trp30,NMeArg35]hPYY(3-36) (peptide)

What follows are substances tested against human Y4 receptor (human) (UniProt P50391) (assay: cell-based or functional assay).
Chain of human Y4 receptor (human) (P50391 whole entry): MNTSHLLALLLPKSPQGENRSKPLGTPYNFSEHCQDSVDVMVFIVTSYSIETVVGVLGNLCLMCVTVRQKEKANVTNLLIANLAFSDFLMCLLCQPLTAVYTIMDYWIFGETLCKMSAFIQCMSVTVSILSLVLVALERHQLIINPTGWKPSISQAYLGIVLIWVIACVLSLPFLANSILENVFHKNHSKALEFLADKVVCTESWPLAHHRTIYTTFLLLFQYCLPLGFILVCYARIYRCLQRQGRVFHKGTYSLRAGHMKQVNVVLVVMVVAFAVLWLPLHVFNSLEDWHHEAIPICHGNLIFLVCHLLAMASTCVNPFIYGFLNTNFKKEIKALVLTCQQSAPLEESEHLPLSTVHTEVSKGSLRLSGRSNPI

EC50, Actone functional potency assay [nM] | Substance
> 1000 | 4-N{alpha}-(3-Methylbutanoyl)-7-N{Epsilon}-[2-[2-[2-[[2-[2-[2-[[(4S)-4-carboxy-4-(16-sulfohexadecanoylamino)-butanoyl]amino]ethoxy]ethoxy]acetyl]amino]ethoxy]-ethoxy]acetyl]-[Arg4,Lys7,D-isoAsp11,Gln18,Trp30,NMeArg35]hPYY(4-36) (peptide)
> 1000 | 4-N{alpha}-(3-Methylbutanoyl)-7-N{Epsilon}-[2-[2-[2-[[2-[2-[2-[[(4S)-4-carboxy-4-(16-sulfohexadecanoylamino)butanoyl]amino]ethoxy]ethoxy]acetyl]amino]-ethoxy]ethoxy]acetyl]-[Lys7,Gln18,Trp30,NMeArg35]hPYY(4-36) (peptide)
> 1000 | 4-N{alpha}-(3-Methylbutanoyl)-7-N{Epsilon}-[2-[2-[2-[[2-[2-[2-[[(4S)-4-carboxy-4-[[(4S)-4-carboxy-4-(16-sulfohexadecanoylamino)butanoyl]amino]butanoyl]amino]-ethoxy]ethoxy]acetyl]amino]ethoxy]ethoxy]acetyl]-[Lys7,Gln18,Trp30,NMeArg35] hPYY(4-36) (peptide)
